Data reported in US20060286093A1 (ZymoGenetics, published 2006).

Assays:
ztnf4 (human) = ztnf4 (human) (UniProt Q9Y275)
soluble I125-ztnf4 = target: T1, soluble I125-ztnf4 (human, UniProt Q9Y275 134-285, limits assumed, 125I label); test: Scatchard analysis of soluble I125-ztnf4 binding to stable BHK transfectants expressing BCMA
T1 construct: also called ztnf4 sol

Molecule | IC50 (read off the curve), inhibition of ztnf4-driven human B cell proliferation (ztnf4 (human)) [µg/mL] | Kd (soluble I125-ztnf4) [nM]
BCMA-Ig (from UniProt Q9Y275) (Fc fusion) | 0.1 | 
TACI-Ig soluble receptor (TACI-Fc4) (Fc fusion, part only; not given: Fc4 carrier, part only) chain, part: MSGLGRSRRGGRSRVDQEERFPQGLWTGVAMRSCPEEQYWDPLLGTCMSCKTICNHQSQRTCAAFCRSLSCRKEQGKFYDHLLRDCISCASICGQHPKQCAYFCENKLRSPVNLPPELRRQRSGEVENNSDNSGRYQGLEHRGSEASPALPGLKLSADQVALVYS | 0.1 | 
BCMA expressed on cells (receptor, also called BCMA-BHK) MLQMAGQCSQNEYFDSLLHACIPCQLRCSSNTPPLTCQRYCNASVTNSVKGTNAILWTCLGLSLIISLAVFVLMFLLRKISSEPLKDEFKNTGSGLLGMANIDLEKSRTGDEIILPRGLEYTVEECTCEDCIKSKPKVDSDHCFPLPAMEEGATILVTTKTNDYCKSLPAALSATEIEKSISAR |  | 1.25
